Assay results reported in patent US20130202609.
Substitutions are numbered along the chain they refer to. Names may count otherwise.

Target: interleukin-8 (IL-8; CXCL8)

B1: GAS57 mutant D151A, His-tagged (protein)
chain: ADELSTMSEPTITNHAQQQAQHLTNTELSSAESKSQDTSQITLKTNREKEQSQDLVSEPTTTELADTDAASMANTGSDATQKSASLPPVNTDVHDWVKTKGAWDKGYKGQGKVVAVIATGIDPAHQSMRISDVSTAKVKSKEDMLARQKAAGINYGSWINDKVVFAHNYVENSDNIKENQFEDFDEDWENFEFDAEAEPKAIKKHKIYRPQSTQAPKETVIKTEETDGSHDIDWTQTDDDTKYESHGMHVTGIVAGNSKEAAATGERFLGIAPEAQVMFMRVFANDIMGSAESLFIKAIEDAVALGADVINLSLGTANGAQLSGSKPLMEAIEKAKKAGVSVVVAAGNERVYGSDHDDPLATNPDYGLVGSPSTGRTPTSVAAINSKWVIQRLMTVKELENRADLNHGKAIYSESVDFKDIKDSLGYDKSHQFAYVKESTDAGYNAQDVKGKIALIERDPNKTYDEMIALAKKHGALGVLIFNNKPGQSNRSMRLTANGMGIPSAFISHEFGKAMSQLNGNGTGSLEFDSVVSKAPSQKGNEMNHFSNWGLTSDGYLKPDITAPGGDIYSTYNDNHYGSQTGTSMASPQIAGASLLVKQYLEKTQPNLPKEKIADIVKNLLMSNAQIHVNPETKTTTSPRQQGAGLLNIDGAVTSGLYVTGKDNYGSISLGNITDTMTFDVTVHNLSNKDKTLRYDTELLTDHVDPQKGRFTLTSHSLKTYQGGEVTVPANGKVTVRVTMDVSQFTKELTKQMPNGYYLEGFVRFRDSQDDQLNRVNIPFVGFKGQFENLAVAEESIYRLKSQGKTGFYFDESGPKDDIYVGKHFTGLVTLGSETNVSTKTISDNGLHTLGTFKNADGKFILEKNAQGNPVLAISPNGDNNQDFAAFKGVFLRKYQGLKASVYHASDKEHKNPLWVSPESFKGDKNFNSDIRFAKSTTLLGTAFSGKSLTGAELPDGHYHYVVSYYPDVVGAKRQEMTFDMILDRQKPVLSQATFDPETNRFKPEPLKDRGLAGVRKDSVFYLERKDNKPYTVTINDSYKYVSVEDNKTFVERQADGSFILPLDKAKLGDFYYMVEDFAGNVAIAKLGDHLPQTLGKTPIKLKLTDGNYQTKETLKDNLEMTQSDTGLVTNQAQLAVVHRNQPQSQLTKMNQDFFISPNEDGNKDFVAFKGLKNNVYNDLTVNVYAKDDHQKQTPIWSSQAGASVSAIESTAWYGITARGSKVMPGDYQYVVTYRDEHGKEHQKQYTISVNDKKPMITQGRFDTINGVDHFTPDKTKALDSSGIVREEVFYLAKKNGRKFDVTEGKDGITVSDNKVYIPKNPDGSYTISKRDGVTLSDYYYLVEDRAGNVSFATLRDLKAVGKDKAVVNFGLDLPVPEDKQIVNFTYLVRDADGKPIENLEYYNNSGNSLILPYGKYTVELLTYDTNAAKLESDKIVSFTLSADNNFQQVTFKITMLATSQITAHFDHLLPEGSRVSLKTAQDQLIPLEQSLYVPKAYGKTVQEGTYEVVVSLPKGYRIEGNTKVNTLPNEVHELSLRLVKVGDASDSTGDHKVMSKNNSQALTASATPT
IL-8 cleavage, SDS-PAGE with silver staining: the GAS57 D151A mutant released only one band, which corresponded to uncleaved IL-8, as in the control reaction (without enzyme)
percentage of uncleaved IL-8, ELISA: no inactivation was observed for IL-8 treated with the mutant enzyme
uncleaved IL-8 after 24 h incubation, ELISA: the mutants release 100% of uncleaved IL-8 after 24 h incubation

B2: GAS57 mutant S617A, His-tagged (protein)
chain: B1 chain with A118D, S584A
IL-8 cleavage, SDS-PAGE with silver staining, 24 hours: unable to cleave IL-8, even at a 100-fold higher concentration than wild-type GAS57
uncleaved IL-8 after 24 h incubation, ELISA: the mutants release 100% of uncleaved IL-8 after 24 h incubation

B3: GAS57 double mutant D151A+S617A, His-tagged (protein)
chain: B1 chain with S584A
IL-8 cleavage, SDS-PAGE with silver staining, 24 hours: unable to cleave IL-8, even at a 100-fold higher concentration than wild-type GAS57
uncleaved IL-8 after 24 h incubation, ELISA: the mutants release 100% of uncleaved IL-8 after 24 h incubation

B4: wild-type GAS57 (Spy0416), recombinant, purified from E. coli (protein)
chain 1: ADELSTMSEPTITNHAQQQAQHLTNTELSSAESKSQDTSQITLKTNREKEQSQDLVSEPTTTELADTDAASMANTGSDATQKSASLPPVNTDVHDWVKTKGAWDKGYKGQGKVVAVIDTGIDPAHQSMRISDVSTAKVKSKEDMLARQKAAGINYGSWINDKVVFAHNYVENSDNIKENQFEDFDEDWENFEFDAEAEPKAIKKHKIYRPQ
chain 2: STQAPKETVIKTEETDGSHDIDWTQTDDDTKYESHGMHVTGIVAGNSKEAAATGERFLGIAPEAQVMFMRVFANDIMGSAESLFIKAIEDAVALGADVINLSLGTANGAQLSGSKPLMEAIEKAKKAGVSVVVAAGNERVYGSDHDDPLATNPDYGLVGSPSTGRTPTSVAAINSKWVIQRLMTVKELENRADLNHGKAIYSESVDFKDIKDSLGYDKSHQFAYVKESTDAGYNAQDVKGKIALIERDPNKTYDEMIALAKKHGALGVLIFNNKPGQSNRSMRLTANGMGIPSAFISHEFGKAMSQLNGNGTGSLEFDSVVSKAPSQKGNEMNHFSNWGLTSDGYLKPDITAPGGDIYSTYNDNHYGSQTGTSMASPQIAGASLLVKQYLEKTQPNLPKEKIADIVKNLLMSNAQIHVNPETKTTTSPRQQGAGLLNIDGAVTSGLYVTGKDNYGSISLGNITDTMTFDVTVHNLSNKDKTLRYDTELLTDHVDPQKGRFTLTSHSLKTYQGGEVTVPANGKVTVRVTMDVSQFTKELTKQMPNGYYLEGFVRFRDSQDDQLNRVNIPFVGFKGQFENLAVAEESIYRLKSQGKTGFYFDESGPKDDIYVGKHFTGLVTLGSETNVSTKTISDNGLHTLGTFKNADGKFILEKNAQGNPVLAISPNGDNNQDFAAFKGVFLRKYQGLKASVYHASDKEHKNPLWVSPESFKGDKNFNSDIRFAKSTTLLGTAFSGKSLTGAELPDGHYHYVVSYYPDVVGAKRQEMTFDMILDRQKPVLSQATFDPETNRFKPEPLKDRGLAGVRKDSVFYLERKDNKPYTVTINDSYKYVSVEDNKTFVERQADGSFILPLDKAKLGDFYYMVEDFAGNVAIAKLGDHLPQTLGKTPIKLKLTDGNYQTKETLKDNLEMTQSDTGLVTNQAQLAVVHRNQPQSQLTKMNQDFFISPNEDGNKDFVAFKGLKNNVYNDLTVNVYAKDDHQKQTPIWSSQAGASVSAIESTAWYGITARGSKVMPGDYQYVVTYRDEHGKEHQKQYTISVNDKKPMITQGRFDTINGVDHFTPDKTKALDSSGIVREEVFYLAKKNGRKFDVTEGKDGITVSDNKVYIPKNPDGSYTISKRDGVTLSDYYYLVEDRAGNVSFATLRDLKAVGKDKAVVNFGLDLPVPEDKQIVNFTYLVRDADGKPIENLEYYNNSGNSLILPYGKYTVELLTYDTNAAKLESDKIVSFTLSADNNFQQVTFKITMLATSQITAHFDHLLPEGSRVSLKTAQDQLIPLEQSLYVPKAYGKTVQEGTYEVVVSLPKGYRIEGNTKVNTLPNEVHELSLRLVKVGDASDSTGDHKVMSKNNSQALTASATPT
IL-8 cleavage, SDS-PAGE with silver staining: Wild-type GAS57 (lanes 2 and 3) released two bands: 8 kDa (active form) and 6 kDa (inactive cleaved IL-8)
percentage of uncleaved IL-8, ELISA: wild-type GAS57 almost completely inactivated IL-8 after 8 hours, even at the lower concentration
